{
  "source": "paper PMC5673899",
  "about": "“Structural basis for receptor recognition of pollen tube attraction peptides” (Nature Communications, 2017)",
  "key": {"[1]": {"tested_on": "prk6 pollen tubes transformed with PRK6 D234A", "test": "Gelatin-beads assay, prk6 pollen tubes transformed with D234A PRK6", "assay_type": "cell-based, Arabidopsis", "settings": "beads with 250 nM wild-type AtLURE1.2; 10–23 pollen tubes per assay, three assays", "method": "Attraction activities of mutant AtLURE1.2 peptides were examined for semi-in-vivo pollen tubes growing through cut, pollinated pistils by gelatin-beads assay and wavy assay, [20]. For the gelatin-beads assay, pollen tubes were grown on solid pollen germination medium poured into a mold made with 1-mm thick silicone rubber and cover glasses. After hand-pollination, the topside cover glass was removed and the medium was covered with hydrated silicone oil (KF-96–100CS; Shin-Etsu). Attraction of pollen tubes toward the peptide was evaluated using AtLURE1 peptide containing gelatine beads under an inverted microscope (IX71, Olympus) equipped with a micro-manipulator (Narishige). For the AtLURE1-responsive wavy assay, the purified AtLURE1.2 peptide was added to solid pollen germination medium, which was melted at 70 °C and then cooled to a certain degree. The mixture was mixed by vortexing and poured into the mold. Pollen tubes of each genotype were grown through cut styles, as mentioned above. Each peptide (25 μM in 10 mM Bis-Tris (pH 6.0) and 100 mM NaCl) was diluted to 250 nM by cultivation medium in both assays. To examine reactivity of PRK6 mutants to AtLURE1.2, constructs for PRK6 mutants, D234A, N239A, and ΔN239I240, were generated by site-directed mutagenesis from a wild-type PRK6 vector, pPZP221-pPRK6::PRK6-mRuby2 (ref. [20]). […]"}, "AtPRK6^LRR ΔN239I240": {"tested_on": "AtPRK6^LRR ΔN239I240", "test": "In vitro pull-down with AtPRK6^LRR mutant with Asn239 and Ile240 deleted", "assay_type": "binding, Arabidopsis thaliana", "settings": "wild-type AtLURE1.2", "excerpt": "The genes of AtPRK3 ^LRR (residues 1–241), AtPRK4 ^LRR (residues 1–277), AtPRK5 ^LRR (residues 1–279), AtPRK6 ^LRR (residues 1–262), MIK1 ^LRR (residues 1–633), MIK2 ^LRR (residues 1–707) were amplified from Arabidopsis cDNA library by PCR and cloned into pFastBac-1 vector with a C-terminal 6 × His-tag. Their identities were confirmed by sequencing. The mature form of AtLURE1.1 (residues 20–94), AtLURE1.2 (residues 20–90), AtLURE1.3 (residues 21–91), and AtLURE1.4 (residues 20–90) were cloned into pFastBac-1 vector, with a modified N-terminal hemolin signal peptide and 6 × His-SUMO tag. Point mutation constructs were generated by QuickChange Site-Directed Mutagenesis Kit (Strategene). All the proteins were expressed using the Bac-to-Bac baculovirus expression system (Invitrogen) in High Five cells at 22 °C. One liter of High Five cells (2.0 × 10^6 cells mL^−1) cultured in the medium from Expression Systems was infected with 25 ml recombinant baculovirus and the media was collected after 72 h of infection. Secreted LRR proteins were purified using Ni-NTA (Novagen) and size-exclusion chromatography (Hiload 200, GE Healthcare) in buffer containing 10 mM Bis-Tris pH 6.0 and 100 mM NaCl. […]\nThe purified His-tagged ectodomains of AtPRK proteins and MIK1, 2 were used to pull-down the AtLURE1.2 peptide. […] All the eluted samples were analyzed by SDS-PAGE and visualized by Coomassie blue staining. […]"}},
  "note": "“Also recorded” adds a separate entry of the source.",
  "data": [
    {"molecule": "AtLURE1.2: mature form of AtLURE1.2 (residues 20–90), defensin-like cysteine-rich peptide expressed in insect cells (protein, left off: His6, N-terminal, cleaved | SUMO, N-terminal, cleaved, mature form of AtLURE1.2 (residues 20–90), defensin-like cysteine-rich peptide expressed in insect cells) TLINGSSDEERTYSFSPTTSPFDPRSLNQELKIGRIGYCFDCARACMRRGKYIRTCSFERKLCRCSISDIK", "values": [
      {"measurement": "pollen tube attraction", "setting": "[1]", "result": "significantly lower than those in wild-type and N239A PRK6 pollen tubes; also recorded: significantly reduced"},
      {"measurement": "interaction in pull-down assay", "setting": "AtPRK6^LRR ΔN239I240", "result": "A similar effect was observed; also recorded: significantly compromised"}
    ]}
  ]
}
